Source: article doi:10.1101/2020.09.29.318410

Molecular target: T4Lnano fusion protein (CBP - ER/K motif - T4L - linker - CaM)
Experiment: crystal structure

T4Lnano fusion protein (CBP - ER/K motif - T4L - linker - CaM)
stoichiometry N: 2
